Laboratory results from paper PMC11579453 (Nature Communications, 2024).
Positions count from the first letter of the chain named. Where two headings read alike, the source gives them in different places. Each block holds one molecule with its values, some of them ahead of it.

Columns and labels:
[1] = target: WT α-Synuclein amyloid fibrils (human) (UniProt P37840); assay: microfluidic diffusional sizing; Alexa647-labelled BRICHOS held constant (three concentrations a curve set), α-Syn fibrils varied between 0.01 and 24 µM (monomer equivalents), equilibrium within 2 hours; global fit of Kd and stoichiometry
[2] = target: WT α-Synuclein amyloid fibrils (human) (UniProt P37840); assay: as above; remark: listed apart in the source
[3] = target: Aβ42 amyloid fibrils (UniProt P05067); assay: microfluidic diffusional sizing; Alexa647-labelled BRICHOS held constant (three concentrations a curve set), Aβ42 fibrils varied between 0.01 and 24 µM (monomer equivalents), incubated 48 h; global fit of Kd and stoichiometry
[4] = target: WT α-Synuclein amyloid fibrils (human) (UniProt P37840); assay: single-molecule TIRF microscopy (single particle tracking); α-Syn fibrils immobilised on a glass coverslip, blocked with BSA; Atto647-labelled Var II added at 1-100 nM in PBS
[5] = target: WT α-Synuclein amyloid fibrils (human) (UniProt P37840); assay: NMR signal intensity ([15N,1H]-HMQC), competition; 100 µM 15N-labelled α-Syn monomer with 540 µM unlabelled α-Syn fibrils, 2 h at 4 °C, then unlabelled Var II added at 100, 300 or 500 µM, followed for ~120 min; 25 mM phosphate, 25 mM NaCl, pH ~6.8
[6] = target: the molecule itself; assay: multi-angle light scattering; proSP-C BRICHOS alone in solution; molecular mass read out; conditions not stated
[7] = target: T1, proSP-C BRICHOS (K114I, R139Q) (UniProt P11686 90-197, K114I | R139Q, Alexa647 label in the microfluidic diffusional sizing (site not stated); Atto647 succinimidyl ester (amine labelling) in the single-molecule microscopy; 15N labelled in the NMR binding experiments …); assay: NMR titration; 15N-labelled Var II, [15N,1H]-TROSY, peptide added at 100 µM to 2 mM; 25 mM phosphate, 25 mM NaCl, pH ~6.8, 2.5% DMSO, 303 K; conditions: both partners purified
T1 construct: BRICHOS domain of proSP-C, residues 90-197, with two salt-bridge mutations of the trimer interface; Monomer by light scattering, diffusional sizing and NMR structure; also called variant II; Var II; source: E. coli BL21(DE3*) pLysS, purified (Ni-NTA, TEV digestion, Ni chromatography, SEC); not shown: His tag, N-terminal, cleaved; NT* solubility tag, N-terminal, cleaved
T1 sequence (looked up): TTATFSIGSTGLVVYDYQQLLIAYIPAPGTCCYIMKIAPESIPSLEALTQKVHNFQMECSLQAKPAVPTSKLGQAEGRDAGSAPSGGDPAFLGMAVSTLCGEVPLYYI

[8] = scale: monomer units in the fibril per BRICHOS molecule

Molecule: WT proSP-C BRICHOS domain (residues 90-197) (from UniProt P11686 90-197) (domain or fragment)
Kd [3]: 192 nM
stoichiometry N ([3]; scale: Aβ42 monomer units on the fibril per BRICHOS molecule): 8
Kd [1]: 696 nM
stoichiometry N ([1]; scale: monomer units of α-Syn per BRICHOS molecule): 38

B1: WT proSP-C BRICHOS domain (residues 90-197) (domain or fragment, UniProt P11686 90-197, looked up)
chain: T1 sequence (looked up) with I25K, Q50R
modifications: Alexa647 label in the microfluidic diffusional sizing (site not stated); 15N,13C labelled for NMR
notes: BRICHOS domain of the lung surfactant protein C precursor (proSP-C), residues 90-197; Homotrimer by light scattering, diffusional sizing and NMR structure; Disulfide bridges 120-148 and 121-189 were restrained in the structure calculation; BMRB entries 34811 and 34813 are printed without saying which is the trimer; also called WT BRICHOS; trimeric proSP-C BRICHOS; not shown: His tag, N-terminal, …
stoichiometry N [6]: 3

B2: client peptide B (peptide)
peptide: VLEMGSGSGSKKVVVVVKK
notes: model client peptide, designed to be able to form a beta hairpin; said to represent part of the transmembrane helical segment of native proSP-C; Dissolved in DMSO at 20 mM stock; also called substrate peptide; source: synthetic peptide; bought: GL Biochem, Shanghai
Kd [7]: ~800000 nM

Next, values leading:

Kd [1]: 1260 nM
stoichiometry N [1, 8]: 18
Kd [2]: 1.26 nM
Molecule: proSP-C BRICHOS (E135R, R139E) (from UniProt P11686 90-197) (domain or fragment)

residence time on the fibrils [4]: 350 to 400 ms
residence time on the fibrils (three exemplary molecules) [4]: 100 s
Kd [3]: 21.4 nM
stoichiometry N [3, 8]: 6
Kd [1]: 450 nM
stoichiometry N ([1]; scale: monomer units in the fibrils per BRICHOS molecule): 7
Kd [2]: 450000 nM
percent of fibril-bound monomeric α-Syn released (100 µM Var II) [5]: 25%
percent of fibril-bound monomeric α-Syn released (300 µM Var II) [5]: 50%
percent of fibril-bound monomeric α-Syn released (500 µM Var II) [5]: 65%
Molecule: proSP-C BRICHOS (K114I, R139Q) (from UniProt P11686 90-197) (domain or fragment)
